In paper PMC2787876 (Journal of molecular biology, 2009):
Substitutions are numbered along the chain they refer to.

B1: arrestin1 2A-3A-h3A (natural protein, bovine, UniProt P08168 1-404, looked up)
chain: MKANKPAPNHVIFKKISRDKSVTIYLGKRDYIDHVERVEPVDGAVAVDPELVKGKRVYVSLTCAFRYGQEDIDVMGLSFRRDLYFSQVQVFPPVGASGATTRAQESAIKKAGANTYPFLLTFPDYLPCSVMLQPAPQDVGKSCGVDFEIKAFATHSTDVEEDKIPKKSSVRLLIRKVQHAPRDMGPQPRAEASWQFFMSDKPLRLAVSLSKEIYYHGEPIPVTVAVTNSTEKTVKKIKVLVEQVTNVVLYSSDYYIKTVAAEEAQEKVPPNSSLTKTLTLVPLLANNRERRGIALDGKIKHEDTNLASSTIIKEGIDKTVMGILVSYQIKVKLTVSGLLGELTSSEVATEVPFRLMHPQPEDPDTAKESFQDENAAAEEFARQNLKDAGEYKEEKTDQEAAMDE
modifications: [3H]leucine and [14C]leucine incorporated
B2: arrestin1 h3A on the background of the 3A mutation (natural protein, bovine, UniProt P08168 1-404, looked up)
chain: B1 chain with A44V, A46L
modifications: [3H]leucine and [14C]leucine incorporated

Target: light activated unphosphorylated rhodopsin (UniProt P02699 1-348, retinal chromophore, light-activated)
Assay: dissociation of the complex after dilution

light activated unphosphorylated rhodopsin, sequence (P02699 whole entry): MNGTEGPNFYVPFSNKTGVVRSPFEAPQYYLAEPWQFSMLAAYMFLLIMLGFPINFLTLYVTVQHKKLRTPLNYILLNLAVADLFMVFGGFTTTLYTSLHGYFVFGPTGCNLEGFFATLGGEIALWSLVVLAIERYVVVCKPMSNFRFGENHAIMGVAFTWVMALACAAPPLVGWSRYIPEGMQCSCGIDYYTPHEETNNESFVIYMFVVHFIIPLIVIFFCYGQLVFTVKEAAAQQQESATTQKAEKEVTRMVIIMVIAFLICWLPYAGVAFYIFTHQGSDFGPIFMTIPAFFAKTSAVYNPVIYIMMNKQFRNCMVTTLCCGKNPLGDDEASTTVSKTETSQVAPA

Binder | half-life of the complex (t1/2) [h]
B1 | 1.2 ± 0.117
B2 | 1.28 ± 0.15
